Laboratory results taken from publication PMC4036818.
Like-named read-outs stand apart in the source and are kept apart here.

Experiments:
[1] = target: native SARS-CoV 3CLpro (3C-like protease, nsp5) with an n-terminal methionine (SARS-CoV (Urbani strain)) (UniProt P0C6X7); test: enzyme activity against enzyme concentration
[2] = target: native SARS-CoV 3CLpro (3C-like protease, nsp5) with an n-terminal methionine (SARS-CoV (Urbani strain)) (UniProt P0C6X7); test: enzyme activity against enzyme concentration; remark: listed apart in the source

native SARS-CoV 3CLpro (3C-like protease, nsp5) with an n-terminal methionine (from UniProt P0C6X7 3241-3544) (enzyme)
Kd [1]: 0.23 µM
Kd [2]: 0.25 to 1 µM
